From patent publication US20140271457A1 (AbbVie / Abbott, published 2014) come the findings set out here.

Where a chain is given by its changes, count along the chain named.

B1: DVD3233 (bispecific antibody, IgG1)
VH: EVQLVQSGAEVKKPGASVKVSCKASGYTFNNYGIIWVRQAPGQGLEWMGWINTYTGKPTYAQKFQGRVTMTTDTSTSTAYMELSSLRSEDTAVYYCARKLFNTVAVTDNAMDYWGQGTTVTVSSGGGGSGGGGSEVQLVESGGGLVQPGGSLRLSCAASGFSFSKYWLGWVRQAPGKGLEWVSDIYPGYDYTHYNEKFKDRFTISADTSKNTAYLQMNSLRAEDTAVYYCARSDGSSTYWGQGTLVTVSS
VL: DIQMTQSPSSLSASVGDRVTITCRASQDIENYLNWYQQKPGKAPKLLIYYTSRLQSGVPSRFSGSGSGTDFTLTISSLQPEDFATYFCQQGNTQPPTFGQGTKLEIKRGGSGGGGSGDIQMTQSPSSLSASVGDRVTITCTSSQNIVHSNGNTYLEWYQQKPGKAPKLLIYKVSNRFSGVPSRFSGSGSGTDFTLTISSLQPEDFATYYCFQVSHVPYTFGQGTKVEIKR
B2: DVD3234 (bispecific antibody, IgG1)
VH: EVQLVQSGAEVKKPGASVKVSCKASGYTFNNYGIIWVRQAPGQGLEWMGWINTYTGKPTYAQKFQGRVTMTTDTSTSTAYMELSSLRSEDTAVYYCARKLFNTVAVTDNAMDYWGQGTTVTVSSASTKGPEVQLVESGGGLVQPGGSLRLSCAASGFSFSKYWLGWVRQAPGKGLEWVSDIYPGYDYTHYNEKFKDRFTISADTSKNTAYLQMNSLRAEDTAVYYCARSDGSSTYWGQGTLVTVSS
VL: DIQMTQSPSSLSASVGDRVTITCRASQDIENYLNWYQQKPGKAPKLLIYYTSRLQSGVPSRFSGSGSGTDFTLTISSLQPEDFATYFCQQGNTQPPTFGQGTKLEIKRTVAAPDIQMTQSPSSLSASVGDRVTITCTSSQNIVHSNGNTYLEWYQQKPGKAPKLLIYKVSNRFSGVPSRFSGSGSGTDFTLTISSLQPEDFATYYCFQVSHVPYTFGQGTKVEIKR
B3: DVD3236 (bispecific antibody, IgG1)
VH: B2 VH
VL: DIQMTQSPSSLSASVGDRVTITCRASQDIENYLNWYQQKPGKAPKLLIYYTSRLQSGVPSRFSGSGSGTDFTLTISSLQPEDFATYFCQQGNTQPPTFGQGTKLEIKRTVAAPSVFIFPPDIQMTQSPSSLSASVGDRVTITCTSSQNIVHSNGNTYLEWYQQKPGKAPKLLIYKVSNRFSGVPSRFSGSGSGTDFTLTISSLQPEDFATYYCFQVSHVPYTFGQGTKVEIKR
B4: DVD3237 (bispecific antibody, IgG1)
VH: EVQLVQSGAEVKKPGASVKVSCKASGYTFNNYGIIWVRQAPGQGLEWMGWINTYTGKPTYAQKFQGRVTMTTDTSTSTAYMELSSLRSEDTAVYYCARKLFNTVAVTDNAMDYWGQGTTVTVSSASTKGPSVFPLAPEVQLVESGGGLVQPGGSLRLSCAASGFSFSKYWLGWVRQAPGKGLEWVSDIYPGYDYTHYNEKFKDRFTISADTSKNTAYLQMNSLRAEDTAVYYCARSDGSSTYWGQGTLVTVSS
VL: B2 VL
B5: DVD3229 (bispecific antibody, IgG1)
VH: EVQLVESGGGLVQPGGSLRLSCAASGFSFSKYWLGWVRQAPGKGLEWVSDIYPGYDYTHYNEKFKDRFTISADTSKNTAYLQMNSLRAEDTAVYYCARSDGSSTYWGQGTLVTVSSASTKGPEVQLVQSGAEVKKPGASVKVSCKASGYTFANYGIIWVRQAPGQGLEWMGWINTYTGKPTYAQKFQGRVTMTTDTSTSTAYMELSSLRSEDTAVYYCARKLFTTMDVTDNAMDYWGQGTTVTVSS
VL: DIQMTQSPSSLSASVGDRVTITCTSSQNIVHSNGNTYLEWYQQKPGKAPKLLIYKVSNRFSGVPSRFSGSGSGTDFTLTISSLQPEDFATYYCFQVSHVPYTFGQGTKVEIKRTVAAPDIQMTQSPSSLSASVGDRVTITCRASQDISQYLNWYQQKPGKAPKLLIYYTSRLQSGVPSRFSGSGSGTDFTLTISSLQPEDFATYFCQQGNTWPPTFGQGTKLEIKR
B6: DVD3242 (bispecific antibody, IgG1)
VH: EVQLVESGGGLVQPGGSLRLSCAASGFSFSKYWLGWVRQAPGKGLEWVSDIYPGYDYTHYNEKFKDRFTISADTSKNTAYLQMNSLRAEDTAVYYCARSDGSSTYWGQGTLVTVSSASTKGPSVFPLAPEVQLVQSGAEVKKPGASVKVSCKASGYTFNNYGIIWVRQAPGQGLEWMGWINTYTGKPTYAQKFQGRVTMTTDTSTSTAYMELSSLRSEDTAVYYCARKLFNTVAVTDNAMDYWGQGTTVTVSS
VL: B5 VL with S148E, Q149N, W212Q
B7: DVD3231 (bispecific antibody, IgG1)
VH: B5 VH
VL: DIQMTQSPSSLSASVGDRVTITCTSSQNIVHSNGNTYLEWYQQKPGKAPKLLIYKVSNRFSGVPSRFSGSGSGTDFTLTISSLQPEDFATYYCFQVSHVPYTFGQGTKVEIKRTVAAPSVFIFPPDIQMTQSPSSLSASVGDRVTITCRASQDISQYLNWYQQKPGKAPKLLIYYTSRLQSGVPSRFSGSGSGTDFTLTISSLQPEDFATYFCQQGNTWPPTFGQGTKLEIKR
B8: DVD3232 (bispecific antibody, IgG1)
VH: B6 VH with N159A, N231T, V233M, A234D
VL: B5 VL
B9: DVD3241 (bispecific antibody, IgG1)
VH: B5 VH with A152N, T224N, M226V, D227A
VL: B7 VL with S155E, Q156N, W219Q
B10: DVD3239 (bispecific antibody, IgG1)
VH: B5 VH with A152N, T224N, M226V, D227A
VL: B5 VL with S148E, Q149N, W212Q
B11: DVD3263 (bispecific antibody, IgG1)
VH: EVQLVESGGGLVQPGGSLRLSCAASGFTFSNYGVTWVRQAPGKGLEWVSMIWADGSTHYASSVKGRFTISRDNSKNTLYLQMNSLRAEDTAVYYCAREWQHGPVAYWGQGTLVTVSSGGGGSGGGGSEVQLQQSGPELVTPGASVKISCKASGYTFTKYWLGWVKQSHGKSLEWIGDIYPGYDYTHYNEKFKDTATLTVDKSSSIAYMEIRGLTSEDSAVYYCARSDGSSTYWGQGTLVTVSA
VL: DIQMTQSPSSLSASVGDRVTITCRASQLVSSAVAWYQQKPGKAPKLLIYWASARHTGVPSRFSGSGSGTDFTLTISSLQPEDFATYYCQQHYKTPFTFGQGTKLEIKRGGSGGGGSGDVQMIQSPSSLSASLGDIVTMTCTSSQNIVHSNGNTYLEWFQQKPGKAPKLLIYKVSNRFSGVPSRFSGSRYGTDFTLTISSLEDEDLATYFCFQVSHVPYTFGGGTKLEIKR
B12: DVD3228 (bispecific antibody, IgG1)
VH: EVQLVESGGGLVQPGGSLRLSCAASGFSFSKYWLGWVRQAPGKGLEWVSDIYPGYDYTHYNEKFKDRFTISADTSKNTAYLQMNSLRAEDTAVYYCARSDGSSTYWGQGTLVTVSSGGGGSGGGGSEVQLVQSGAEVKKPGASVKVSCKASGYTFANYGIIWVRQAPGQGLEWMGWINTYTGKPTYAQKFQGRVTMTTDTSTSTAYMELSSLRSEDTAVYYCARKLFTTMDVTDNAMDYWGQGTTVTVSS
VL: DIQMTQSPSSLSASVGDRVTITCTSSQNIVHSNGNTYLEWYQQKPGKAPKLLIYKVSNRFSGVPSRFSGSGSGTDFTLTISSLQPEDFATYYCFQVSHVPYTFGQGTKVEIKRGGSGGGGSGDIQMTQSPSSLSASVGDRVTITCRASQDISQYLNWYQQKPGKAPKLLIYYTSRLQSGVPSRFSGSGSGTDFTLTISSLQPEDFATYFCQQGNTWPPTFGQGTKLEIKR
B13: DVD3238 (bispecific antibody, IgG1)
VH: B12 VH with A156N, T228N, M230V, D231A
VL: B12 VL with S152E, Q153N, W216Q

The target of the assay is Recombinant Human TNF-α/TNFSF1A (human, UniProt P01375 77-233). As to the kind of experiment: cell-based or functional assay.
Sequence of Recombinant Human TNF-α/TNFSF1A (P01375 77-233 limits assumed): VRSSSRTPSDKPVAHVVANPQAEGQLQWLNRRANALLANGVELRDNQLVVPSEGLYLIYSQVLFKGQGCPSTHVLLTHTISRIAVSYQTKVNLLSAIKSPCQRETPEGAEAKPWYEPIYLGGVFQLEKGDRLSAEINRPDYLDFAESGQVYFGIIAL
Take B1: the “N-Terminal VD huTNFα Neutralization Assay IC50” value came out at 0.005 nM.
Still for that read-out and setting: the value for B2 was 0.009 nM; that for B3 was 0.006 nM; that for B4 was 0.01 nM.
As for B5, the “C-Terminal VD huTNFα Neutralization Assay IC50” value came out at 0.086 nM.
For B6, the “C-Terminal VD huTNFα Neutralization Assay IC50” value is 0.13 nM.
On the same count and under the same terms, the value for B7 was 0.112 nM; that for B8 was 0.254 nM.
Still for that read-out and setting: in the case of B9 it was 0.112 nM; in that of B10, 1.62 nM.
B11: the “N-Terminal VD huTNFα Neutralization Assay IC50” value is 0.008 nM.
Consider B12, for which the “C-Terminal VD huTNFα Neutralization Assay IC50” value worked out at 0.052 nM.
The same measure, in the same setting: the value for B13 was 0.168 nM.
